Patent US20240218065A1 (SHENGHE CHINA BIOPHARMACEUTICAL, published 2024)
Substitutions are numbered along the chain they refer to. Where two headings read alike, the source gives them in different places. Values belong to the binder of their own block, whether it stands above or below them.

Assays:
[1] = biological target: T1, Human-GPC3-His (human, UniProt P51654 25-559, limits assumed); assay: ELISA: Human-GPC3-His coated at 0.5 µg/mL, antibody titrated 3-fold from 10 µg/mL, HRP goat anti-human IgG-Fc, OD450-OD570
T1 construct: Coated on the ELISA plate; also called GPC-3 protein; GPC3 protein; not shown: His tag
T1 sequence (P51654 25-559 limits assumed): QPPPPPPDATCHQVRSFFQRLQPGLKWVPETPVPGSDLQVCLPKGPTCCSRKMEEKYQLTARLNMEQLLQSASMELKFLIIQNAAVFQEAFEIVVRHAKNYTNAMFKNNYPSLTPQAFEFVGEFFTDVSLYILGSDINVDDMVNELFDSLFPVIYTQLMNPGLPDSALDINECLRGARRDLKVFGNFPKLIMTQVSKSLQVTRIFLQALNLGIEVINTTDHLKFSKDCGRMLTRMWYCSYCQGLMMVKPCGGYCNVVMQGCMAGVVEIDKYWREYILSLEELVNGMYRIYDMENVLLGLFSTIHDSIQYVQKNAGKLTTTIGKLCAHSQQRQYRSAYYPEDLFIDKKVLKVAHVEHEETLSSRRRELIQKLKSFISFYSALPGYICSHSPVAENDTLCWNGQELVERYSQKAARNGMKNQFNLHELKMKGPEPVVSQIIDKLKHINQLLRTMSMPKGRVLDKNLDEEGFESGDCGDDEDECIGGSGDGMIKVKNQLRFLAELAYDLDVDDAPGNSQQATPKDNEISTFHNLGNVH
Procedure: (§1) Human-GPC3-His was diluted to 0.5 μg/mL with PBS buffer at pH 7.4, added into the 96-well ELISA plate at 100 μL per well, coated overnight at 4° C., and blocked with 1% BSA blocking solution for 1 hour. The plate was washed 3 times with PBST, and the constructed antibody was diluted to 10 μg/mL with 0.5% BSA sample diluent as the starting concentration, and then diluted by 3-fold gradient (11 gradients in total) and incubated at 37° C. for 1 h at 100 μL per well. The plate was washed 3 times with PBST, and then HRP-labelled goat anti-human IgG-Fc was diluted with the sample diluent at 1:20000. 100 μL was added into each well, and incubated at room temperature for 1 hour. A negative control (blank well and IgG1 isotype control) and a positive control were set, and the positive control was a GPC-3 and CD3 bispecial antibody from the literature Hs, A, et al. “Engineering a bispecific antibody with a common light chain: Identification and optimization of an anti-CD3 epsilon and anti-GPC3 bispecific antibody, ERY974.” Methods 154 (2019): 10-20. (The GPC-3 and CD3 bispecial antibody sequence consists of SEQ ID No. 22, SEQ ID No. 23, and SEQ ID No. 24). The plate was washed 4 times with PBST, and 100 μL of TMB substrate was added into each well, and incubated at room temperature without light for 10 minutes. 100 μL of 1 M HCl solution was added into each well to terminate the color development reaction. The absorbance value of each well in the 96-well plate was determined by selecting the wavelength of 450 nm and the reference wavelength of 570 nm on a multifunctional enzyme marker, and the absorbance value (OD)=OD₄₅₀ₙₘ−OD₅₇₀ₙₘ. The logarithm of the concentration of the constructed antibody was taken as the abscissa, and the measured absorbance value of each well was taken as the ordinate, and the Sigmoidaldose-response (Variable Slope) method (GraphPad Prism software, GraphPad Software, San Diego, California) was selected for nonlinear regression to obtain the binding curve of the target antibody to the GPC-3 protein.

[2] = biological target: T1, Human-GPC3-His; assay: as above; remark: listed apart in the source
Procedure: as §1

[3] = biological target: T1, Human-GPC3-His; assay: as above; remark: listed apart in the source
Procedure: as §1

[4] = biological target: T2, Human-NKP30-His (Kactus, cat: NKP-HM430) (human, UniProt O14931 19-138, limits assumed); assay: ELISA: Human-NKP30-His coated, antibody titrated 3-fold from 10 µg/mL, HRP goat anti-human IgG-Fc, OD450-OD570
T2 construct: also called NKP30 protein; NKP30-his protein; not shown: His tag
T2 sequence (looked up): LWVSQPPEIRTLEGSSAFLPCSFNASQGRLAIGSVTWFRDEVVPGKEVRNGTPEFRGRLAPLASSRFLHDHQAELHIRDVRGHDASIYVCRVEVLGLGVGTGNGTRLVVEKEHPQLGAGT
Procedure: Human-NKP30-His (Kactus, cat: NKP-HM430) was diluted to […] with PBS buffer at pH 7.4, added into the 96-well ELISA plate at 100 μL per well, coated overnight at 4° C., and blocked with 1% BSA blocking solution for 1 hour. The plate was washed 3 times with PBST, and the constructed antibodies were diluted to 10 μg/mL with 0.5% BSA sample diluent as the starting concentration, and then diluted by 3-fold gradient (11 gradients in total). A negative control (blank well and IgG1 isotype control) and a positive control were set, and the positive control was a NKP30 humanized antibody (sequence shown in SEQ ID No. 28), and incubated at 37° C. for 1 h at 100 μL per well. The plate was washed 3 times with PBST, and then HRP-labelled goat anti-human IgG-Fc was diluted with the sample diluent at 1:20000. 100 μL was added into each well, and incubated at room temperature for 1 hour. The plate was washed 4 times with PBST, and 100 μL of TMB substrate was added into each well, and incubated at room temperature without light for 10 minutes. 100 μL of 1 M HCl solution was added into each well to terminate the color development reaction. The absorbance value of each well in the 96-well plate was determined by selecting the wavelength of 450 nm and the reference wavelength of 570 nm on a multifunctional enzyme marker, and the absorbance value (OD)=OD₄₅₀ₙₘ−OD₅₇₀ₙₘ. The logarithm of the concentration of the constructed antibody was taken as the abscissa, and the measured absorbance value of each well was taken as the ordinate, and the Sigmoidaldose-response (Variable Slope) method (GraphPad Prism software, GraphPad Software, San Diego, California) was selected for nonlinear regression to obtain the binding curve of the target antibody to NKP30.

EC50 (read off the curve) [1]: ~0.01 µg/mL | EC50 (read off the curve) [2]: ~0.03 µg/mL | EC50 (read off the curve) [3]: ~0.03 µg/mL
B1: GPC-3 and CD3 bispecial antibody (ERY974) (bispecific antibody, human IgG4 S228P, kappa, N297A)
chain 1: QVQLVQSGAEVKKPGASVTVSCKASGYTFTDYEMHWIRQPPGEGLEWIGAIDGPTPDTAYSEKFKGRVTLTADKSTSTAYMELSSLTSEDTAVYYCTRFYSYTYWGQGTLVTVSSASTKGPSVFPLAPCSRSTSESTAALGCLVKDYFPEPVTVSWNSGALTSGVHTFPAVLQSSGLYSLSSVVTVPSSSLGTQTYTCNVDHKPSNTKVDKRVESKYGPPCPPCPAPEFRGGPKVFLFPPKPKDTLMISRTPEVTCVVVDVSQEDPEVQFNWYVDGVEVHNAKTKPREEQFASTYRVVSVLTVLHQDWLNGKEYKCKVSNKGLPSSIEKTISKAKGQPREPQVYTLPPSQEEMTKNQVSLTCLVKGFYPSDIAVEWESNGQPENNYKTTPPVLDSDGSFFLYSKLTVDKSRWQEGNVFSCSVMHEALHNHYTQESLSLSP
chain 2: QVQLVESGGGVVQPGGSLRLSCAASGFTFSNAWMHWVRQAPGKGLEWVAQIKDKSQNYATYVAESVKGRFTISRADSKNSIYLQMNSLKTEDTAVYYCRYVHYAAGYGVDIWGQGTTVTVSSASTKGPSVFPLAPCSRSTSESTAALGCLVKDYFPEPVTVSWNSGALTSGVHTFPAVLQSSGLYSLSSVVTVPSSSLGTKTYTCNVDHKPSNTKVDKRVESKYGPPCPPCPAPEFRGGPKVFLFPPKPKDTLMISRTPEVTCVVVDVSQEDPEVQFNWYVDGVEVHNAKTKPREEQFASTYRVVSSLTVLHQDWLNGKEYKCKVSNKGLPSSIEKTISKAKGQPREPQVYTLPPSQKEMTKNQVSLTCLVKGFYPSDIAVEWESNGQPENNYKTTPPVLDSSGSFFLYSKLTVDKSRWQEGNVFSCSVMHEALHNHYTQKSLSLSP
chain 3: DIVMTQSPLSLPVTPGEPASISCRSSQPLVHSNRNTYLHWYQQKPGQAPRLLIYKVSNRFSGVPDRFSGSGSGTDFTLKISRVEAEDVGVYYCGQGTQVPYTFGQGTKLEIKRTVAAPSVFIFPPSDEQLKSGTASVVCLLNNFYPREAKVQWKVDNALQSGNSQESVTEQDSKDSTYSLSSTLTLSKADYEKHKVYACEVTHQGLSSPVTKSFNRGEC
notes: also called anti-CD3 epsilon and anti-GPC3 bispecific antibody

EC50 (read off the curve) [1]: ~0.01 µg/mL | EC50 (read off the curve) [4]: ~0.03 µg/mL
B2: GN15-G (bispecific antibody, human IgG1, kappa)
light 1: QVQLVQSGAEVKKPGASVKVSCKASGYTFTDYEMHWVRQAPGQGLEWMGALDPKTGDTAYSQKFKGRVTLTADKSTSTAYMELSSLTSEDTAVYYCTRFYSYTYWGQGTLVTVSSRTVAAPSVFIFPPSDEQLKSGTASVVCLLNNFYPREAKVQWKVDNALQSGNSQESVTEQDSKDSTYSLSSTLTLSKADYEKHKVYACEVTHQGLSSPVTKSFNRGECGGGGSGGGGSGGGGSGGGGSEVQLVESGGGLVQPGGSLRLSCAASGITFSRSVMGWFRQAPGKLRELVAGITSDDNTDYADSVKGRFTISRDNSKNTLYLQMNSLRAEDTAVYYCNILPDSRLGWGQGTLVTVSS
heavy 1: not shown
heavy 2: QVQLVQSGAEVKKPGASVKVSCKASGYTFTDYEMHWVRQAPGQGLEWMGALDPKTGDTAYSQKFKGRVTLTADKSTSTAYMELSSLTSEDTAVYYCTRFYSYTYWGQGTLVTVSSASTKGPSVFPLAPSSKSTSGGTAALGCLVKDYFPEPVTVSWNSGALTSGVHTFPAVLQSSGLYSLSSVVTVPSSSLGTQTYICNVNHKPSNTKVDKKVEPKSCDKTHTCPPCPGGGGSGGGGSPALLLLLLLRPPATRGITCPPPMSVEHADIWVKSYSLYSRERYICNSGFKRKAGTSSLTECVLNKATNVAHWTTPSLKCIRDPALVHQRPAPPSTVTTAGVTPQPESLSPSGKEGGGGSGGGGSAPELLGGPSVFLFPPKPKDTLMISRTPEVTCVVVDVSHEDPEVKFNWYVDGVEVHNAKTKPREEQYNSTYRVVSVLTVLHQDWLNGKEYKCKVSNKALPAPIEKTISKAKGQPREPQVYTLPPSRDELTKNQVSLTCLVKGFYPSDIAVEWESNGQPENNYKTTPPVLDSDGSFFLASKLTVDKSRWQQGNVFSCSVMHEALHNHYTQKSLSLSPGK
light 2: B1 chain 3 with I2V, P28S, Q42L, A48S, R50Q, G94S, G96N, Q98H, Y101P
notes: Trifunctional antibody against GPC-3 and NKP30 with IL-15 and IL-15Rα sushi between CH1 and CH2; also called constructed antibody GN15-G; multifunctional antibody

EC50 (read off the curve) [3]: ~0.02 µg/mL | EC50 (read off the curve) [4]: ~0.03 µg/mL
B3: GN15-F (bispecific antibody, human IgG1, kappa)
light: B1 chain 3 with I2V, P28S, Q42L, A48S, R50Q, G94S, G96N, Q98H, Y101P
heavy 1: not shown
heavy 2: B2 heavy 2
notes: Trifunctional antibody against GPC-3 and NKP30 with IL-15 and IL-15Rα sushi between CH1 and CH2; also called constructed antibody GN15-F; multifunctional antibody
